US20170267755A1 (SRI INTERNATIONAL, published 2017)
Values belong to the binder of their own block, whether it stands above or below them.

Target: T1, human mesothelin expressed on the plasma membrane of cells (HeLa, OVCAR-3, SK-OV-3, A1847) (human, UniProt Q13421 296-598)
T1 construct: whole, on cells; GPI-linked cell-surface form on human cell lines and on A1847 spheroid sections and tumors; also called Msln
Test: flow cytometry on HeLa cells, chemically biotinylated Nb, PE-streptavidin, double-reciprocal fit
Experimental: In specific experimental embodiments, the affinity of the two Nbs, Nb A1 and Nb C6, can determined by flow cytometry using HeLa cells. Binding to HeLa cells can be detected using flow cytometry after incubation with various concentrations of biotinylated Nbs followed by PE-labeled streptavidin. KD values are determined by the equation KD=a *Fₘₐₓ in which “a” is the regression line and Fₘₐₓ is the maximum of fluorescence. […] In addition, the higher affinity and maximum mean fluorescence intensity (MFI) achieved with Nb A1 is consistent with its predominant representation in the phage display output and the larger fluorescence shift seen with flow cytometry.
Briefly, fifty μg of each Nb are biotinylated chemically using the EZ-Link Micro NHSPEO4-Biotinylation Kit. After incubation of mesothelin-positive HeLa cells (5×10⁵) with various concentrations of biotinylated Nbs for one hour at four degrees C. under shaking (nine hundred rpm), Nbs binding is detected by flow cytometry following incubation with (PE)-labeled streptavidin. The KD values are determined by the equation: […]

T1 sequence (Q13421 other isoform, or with tags, fused parts or gaps limits assumed): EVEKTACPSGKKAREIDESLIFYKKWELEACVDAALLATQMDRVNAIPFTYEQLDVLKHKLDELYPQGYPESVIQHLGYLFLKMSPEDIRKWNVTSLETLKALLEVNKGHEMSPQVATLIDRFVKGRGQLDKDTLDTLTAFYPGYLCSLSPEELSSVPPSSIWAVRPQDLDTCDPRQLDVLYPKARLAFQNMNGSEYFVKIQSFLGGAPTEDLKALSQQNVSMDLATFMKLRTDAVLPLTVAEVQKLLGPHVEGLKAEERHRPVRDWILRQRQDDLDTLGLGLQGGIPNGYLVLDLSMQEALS

Kd: ~15 nM
B1: Nb A1 (VHH)
VHH: HPGGSLRLSCAASGIDLSLYRMRWYRQAPGKERDLVALITDDGTSYYEDSVKGRFTITRDNPSNKVFLQMNSLKPEDTAVYYCNAETPLSPVNYWGQ
notes: Llama VHH made in the E. coli periplasm with a C-terminal His tag; also called G3A; G3a; not shown: C-terminal hexahistidine tag

Kd: 30 nM
B2: Nb C6 (VHH)
VHH: QAGGSLRLSCAPSGSIFGIRTMDWYRQAPGKERELVARITMDGRVFHADSVKGRFSGSRDGASNAVYLQMNSLKPDDTAVYYCRYSGLTSREDYWGP
notes: Llama VHH made in the E. coli periplasm with a C-terminal His tag; also called F10; not shown: C-terminal hexahistidine tag
